Experimental data from patent publication US6218600A, “Structure and expression of the biotin carboxylase subunit of heteromeric acetyl-CoA carboxylase” (Board of Trustees Operating Michigan State University, priority 1996, dated 2001).

Key:
Castor Endosperm ACCase = assay: ACCase activity assay, castor endosperm extract, with metabolites of fatty acid synthesis; format: biochemical, castor (Ricinus Communis L.); conditions: mean of duplicate determinations ± standard deviation, 15 min
Pea Chloroplast ACCase = assay: ACCase activity assay, pea chloroplast enzyme partially purified by gel permeation, with metabolites of fatty acid synthesis; format: biochemical, pea (Pisum sativum); conditions: mean of duplicate determinations ± standard deviation, 15 min

| Molecule | Castor ACCase Activity (% of Control) (Castor Endosperm ACCase; 10 μM addition) | Pea ACCase Activity (% of control) (Pea Chloroplast ACCase; 1 μM addition) | Pea ACCase Activity (% of control) (Pea Chloroplast ACCase; 3 μM addition) | Pea ACCase Activity (% of control) (Pea Chloroplast ACCase; 10 μM addition) | Castor ACCase Activity (% of Control) (Castor Endosperm ACCase; 5 μM addition) |
| --- | --- | --- | --- | --- | --- |
| CCCCCCCCCCCCCCCC(=O)O [16:0, reference compound] | 97 ± 8 % of Control | – | – | – | – |
| CCCCCCCC/C=C\CCCCCCCC(=O)O [18:1, Oleic acid, reference compound] | 72 ± 10 % of Control | – | – | – | – |
| 16:0-ACP: long-chain acyl-ACP synthesized from radioactive 16:0 fatty acid and recombinant spinach ACP-I (conjugate, UniProt P07854 57-138, looked up, radiolabeled palmitoyl (16:0) acyl thioester) Acyl carrier protein 1, …: AKKETIDKVCDIVKEKLALGADVVVTADSEFSKLGADSLDTVEIVMNLEEEFGINVDEDKAQDISTIQQAADVIESLLEKKA | 75 ± 3 % of Control | 98 ± 2 % of control | 91 ± 4 % of control | 77 ± 4 % of control | – |
| 18:1-ACP: long-chain acyl-ACP synthesized from radioactive 18:1 fatty acid and recombinant spinach ACP-I (conjugate, UniProt P07854 57-138, looked up, radiolabeled oleoyl (18:1) acyl thioester) Acyl carrier protein 1, …: AKKETIDKVCDIVKEKLALGADVVVTADSEFSKLGADSLDTVEIVMNLEEEFGINVDEDKAQDISTIQQAADVIESLLEKKA | 63 ± 11 % of Control | 97 ± 1 % of control | 87 ± 3 % of control | 79 ± 14 % of control | 81 ± 9 % of Control |
